Measurements reported in doi:10.1101/2023.09.21.558797 (2023).

B1: GST-Dyn1xA-PRR (full-length proline-rich region of Dynamin 1 splice variant xA, 746-864) [rat] / Amphiphysin 1 (endogenous, rat brain synaptosomes) [rat (endogenous in rat brain synaptosomes)] (parent complex)
chain 1: NTTTVSTPMPPPVDDSWLQVQSVPAGRRSPTSSPTPQRRAPAVPPARPGSRGPAPGPPPAGSALGGAPPVPSRPGASPDPFGPPPQVPSRPNRAPPGVPSRSGQASPSRPESPRPPFDL
chain 2: MADIKTGIFAKNVQKRLNRAQEKVLQKLGKADETKDEQFEEYVQNFKRQEAEGTRLQRELRGYLAAIKGMQEASMKLTESLHEVYEPDWYGREDVKMVGEKCDVLWEDFHQKLVDGSLLTLDTYLGQFPDIKNRIAKRSRKLVDYDSARHHLEALQSSKRKDESRISKAEEEFQKAQKVFEEFNVDLQEELPSLWSRRVGFYVNTFKNVSSLEAKFHKEIAVLCHKLYEVMTKLGDQHADKAFSIQGAPSDSGPLRIAKTPSPPEEASPLPSPTASPNHTLAPASPAPVRPRSPSQTRKGPPVPPLPKVTPTKELQQENIINFFEDNFVPEINVTTPSQNEVLEVKKEETLLDLDFDPFKPDVTPAGSAAATHSPMSQTLPWDLWTTSTDLVQPASGGSFNDFTQPQDTSLFTMQTDQNMAETEQALPTEPQAEEPPTTAAAPTAGLDLGLEMEEPKEEAAIPPGTDAGETVGTEGSTGEEAEAEKAALPAGEGESPEGAKIDVESTELASSESPQAAELEAGAPQEKVIPSVVIEPASNHEGEEHQETTTGTETREATEDVAPQGPAGEKQELATEPTPLDSQAATPAPAGAVDASLSAGDAAQELPPGFLYKVETLHDFEAANSDELTLQRGDVVLVVPSDSEADQDAGWLVGVKESDWLQYRDLATYKGLFPENFTRHLE
B2: GST-Dyn1xA-PRR (full-length proline-rich region of Dynamin 1 splice variant xA, 746-864) [rat] / Endophilin A1 (endogenous, rat brain synaptosomes) [rat (endogenous in rat brain synaptosomes)] (parent complex)
chain 1: B1 chain 1
chain 2: MSVAGLKKQFHKATQKVSEKVGGAEGTKLDDDFKEMERKVDVTSRAVMEIMTKTIEYLQPNPASRAKLSMINTMSKIRGQEKGPGYPQAEALLAEAMLKFGRELGDDCNFGPALGEVGEAMRELSEVKDSLDMEVKQNFIDPLQNLHDKDLREIQHHLKKLEGRRLDFDYKKKRQGKIPDEELRQALEKFDESKEIAESSMFNLLEMDIEQVSQLSALVQAQLEYHKQAVQILQQVTVRLEERIRQASSQPRREYQPKPRMSLEFATGDGTQPNGGLSHTGTPKPAGVQMDQPCCRALYDFEPENEGELGFKEGDIITLTNQIDENWYEGMLHGQSGFFPINYVEILVALPH

Variants of: B1
Assay: GST pull-down, densitometry of western blots; n=2; parent: 100; read off a plot

Variant | percent of parent
chain 1 S29E, chain 1 S33E | ~98%
chain 1 S106E, chain 1 S112E | ~90%

Variants of: B2
Assay: as above

Variant | percent of parent
chain 1 S29E, chain 1 S33E | ~37%
chain 1 S106E, chain 1 S112E | ~53%
